Target: T1, Mycobacterium proteasomal ATPase (Mpa), untagged recombinant (Mycobacterium tuberculosis, UniProt P9WQN5 1-609)
T1 sequence: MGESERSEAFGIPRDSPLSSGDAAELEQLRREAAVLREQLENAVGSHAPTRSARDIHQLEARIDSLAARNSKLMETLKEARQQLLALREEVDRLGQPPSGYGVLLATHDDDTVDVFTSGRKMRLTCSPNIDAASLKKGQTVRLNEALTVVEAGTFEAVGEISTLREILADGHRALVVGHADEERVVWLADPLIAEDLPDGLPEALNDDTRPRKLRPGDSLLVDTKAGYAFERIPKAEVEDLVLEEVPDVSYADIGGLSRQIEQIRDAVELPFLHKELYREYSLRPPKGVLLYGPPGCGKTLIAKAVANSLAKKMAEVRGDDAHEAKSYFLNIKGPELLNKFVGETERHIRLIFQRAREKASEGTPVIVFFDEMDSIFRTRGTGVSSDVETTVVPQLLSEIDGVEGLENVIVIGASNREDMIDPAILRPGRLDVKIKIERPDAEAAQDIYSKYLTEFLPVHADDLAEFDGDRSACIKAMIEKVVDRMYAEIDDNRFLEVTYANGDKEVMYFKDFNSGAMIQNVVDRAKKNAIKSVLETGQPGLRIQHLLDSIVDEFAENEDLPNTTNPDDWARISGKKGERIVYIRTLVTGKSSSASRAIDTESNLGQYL
Test: Ni-NTA agarose pull-down, Coomassie gel and anti-Mpa immunoblot

B1: [change] (other)
chain: MAQEQTKRGGGGGDDDDIAGSTAAGQERREKLTEETDDLLDEIDDVLEENAEDFVRAYVQKGGQ
B1: binds.

From patent publication US20100055715A1 (published 2010)
